Reference: US20250144178A1 (KANAPH THERAPEUTICS, published 2025)
Changes are numbered by the printed parent chain.

B1: T1.12m (anti-mu FAP/null, mu IgG2a DANG) (antibody)
heavy: QVQLQQSGAELARPGASVNLSCKASGYTFTNNGINWLKQRTGQGLEWIGEIYPRSTNTLYNEKFKGKATLTADRSSNTAYMELRSLTSEDSAVYFCARTLTAPFAFWGQGTLVTVSAAKTTAPSVYPLAPVCGDTTGSSVTLGCLVKGYFPEPVTLTWNSGSLSSGVHTFPAVLQSDLYTLSSSVTVTSSTWPSQSITCNVAHPASSTKVDKKIEPRGPTIKPCPPCKCPAPNLLGGPSVFIFPPKIKDVLMISLSPIVTCVVVAVSEDDPDVQISWFVNNVEVHTAQTQTHREDYGSTLRVVSALPIQHQDWMSGKEFKCKVNNKDLPAPIERTISKPKGSVRAPQVYVLPPPEEEMTKKQVTLWCMVTDFMPEDIYVEWTNNGKTELNYKNTEPVLDSDGSYFMYSKLRVEKKNWVERNSYSCSVVHEGLHNHHTTKSFSRTPGK
light: QIVLTQSPAIMSASPGEKVTMTCSASSGVNFMHWYQQKSGTSPKRWIFDTSKLASGVPARFSGSGSGTSYSLTISSMEAEDAATYYCQQWSFNPPTFGGGTKLEIKRADAAPTVSIFPPSSEQLTSGGASVVCFLNNFYPKDINVKWKIDGSERQNGVLNSWTDQDSKDSTYSMSSTLTLTKDEYERHNSYTCEATHKTSTSPIVKSFNRNEC
chain: EPRGPTIKPCPPCKCPAPNLLGGPSVFIFPPKIKDVLMISLSPIVTCVVVAVSEDDPDVQISWFVNNVEVHTAQTQTHREDYGSTLRVVSALPIQHQDWMSGKEFKCKVNNKDLPAPIERTISKPKGSVRAPQVYVLPPPEEEMTKKQVTLSCAVTDFMPEDIYVEWTNNGKTELNYKNTEPVLDSDGSYFMVSKLRVEKKNWVERNSYSCSVVHEGLHNHHTTKSFSRTPGK
notes: One-armed anti-mouse FAP antibody without IL-12; control
B2: T1.10 (anti-hu FAP/anti-hu FAP-hu IL-12, hu IgG1 DANG (2 + 1)) (antibody)
heavy 1: QVQLVQSGAEVKKPGASVKVSCKTSRYTFTEYTIHWVRQAPGQRLEWIGGINPNNGIPNYNQKFKGRVTITVDTSASTAYMELSSLRSEDTAVYYCARRRIAYGYDEGHAMDYWGQGTLVTVSSASTKGPSVFPLAPSSKSTSGGTAALGCLVKDYFPEPVTVSWNSGALTSGVHTFPAVLQSSGLYSLSSVVTVPSSSLGTQTYICNVNHKPSNTKVDKKVEPKSCDKTHTCPPCPAPELLGGPSVFLFPPKPKDTLMISRTPEVTCVVVAVSHEDPEVKFNWYVDGVEVHNAKTKPREEQYGSTYRVVSVLTVLHQDWLNGKEYKCKVSNKALPAPIEKTISKAKGQPREPQVYTLPPSRDELTKNQVSLWCLVKGFYPSDIAVEWESNGQPENNYKTTPPVLDSDGSFFLYSKLTVDKSRWQQGNVFSCSVMHEALHNHYTQKSLSLSPGK
heavy 2: QVQLVQSGAEVKKPGASVKVSCKTSRYTFTEYTIHWVRQAPGQRLEWIGGINPNNGIPNYNQKFKGRVTITVDTSASTAYMELSSLRSEDTAVYYCARRRIAYGYDEGHAMDYWGQGTLVTVSSASTKGPSVFPLAPSSKSTSGGTAALGCLVKDYFPEPVTVSWNSGALTSGVHTFPAVLQSSGLYSLSSVVTVPSSSLGTQTYICNVNHKPSNTKVDKKVEPKSCDKTHTCPPCPAPELLGGPSVFLFPPKPKDTLMISRTPEVTCVVVAVSHEDPEVKFNWYVDGVEVHNAKTKPREEQYGSTYRVVSVLTVLHQDWLNGKEYKCKVSNKALPAPIEKTISKAKGQPREPQVYTLPPSRDELTKNQVSLSCAVKGFYPSDIAVEWESNGQPENNYKTTPPVLDSDGSFFLVSKLTVDKSRWQQGNVFSCSVMHEALHNHYTQKSLSLSPGGGGGSGGGGSGGGGSIWELKKDVYVVELDWYPDAPGEMVVLTCDTPEEDGITWTLDQSSEVLGSGKTLTIQVKEFGDAGQYTCHKGGEVLSHSLLLLHKKEDGIWSTDILKDQKEPKNKTFLRCEAKNYSGRFTCWWLTTISTDLTFSVKSSRGSSDPQGVTCGAATLSAERVRGDNKEYEYSVECQEDSACPAAEESLPIEVMVDAVHKLKYENYTSSFFIRDIIKPDPPKNLQLKPLKNSRQVEVSWEYPDTWSTPHSYFSLTFCVQVQGKSKREKKDRVFTDKTSATVICRKNASISVRAQDRYYSSSWSEWASVPCSGGGGSGGGGSGGGGSRNLPVATPDPGMFPCLHHSQNLLRAVSNMLQKARQTLEFYPCTSEEIDHEDITKDKTSTVEACLPLELTKNESCLNSRETSFITNGSCLASRKTSFMMALCLSSIYEDLKMYQVEFKTMNAKLLMDPKRQIFLDQNMLAVIDELMQALNFNSETVPQKSSLEEPDFYKTKIKLCILLHAFRIRAVTIDRVMSYLNAS
light: not shown
notes: single-chain IL-12 at the C-terminus of the hole heavy chain
B3: T1.11 (anti-hu FAP/anti-hu FAP-hu IL-12 mut2, hu IgG1 DANG (2 + 1)) (antibody)
heavy 1: B2 heavy 1
heavy 2: B2 heavy 2 with K726A, K728A, K731A, K732A
light: not shown
notes: single-chain IL-12 mut2 at the C-terminus of the hole heavy chain

Legend:
[1] = target: T1, mouse FAP (fibroblast activation protein alpha) overexpressed in B16F10 cells (B16F10-mFAP) (mouse, UniProt P97321 1-761); assay: flow cytometry on B16F10-mFAP cells, detection with anti-mouse IgG2a antibody
T1 construct: whole, on cells; also called mouse FAP-expressing cell line
T1 sequence (looked up): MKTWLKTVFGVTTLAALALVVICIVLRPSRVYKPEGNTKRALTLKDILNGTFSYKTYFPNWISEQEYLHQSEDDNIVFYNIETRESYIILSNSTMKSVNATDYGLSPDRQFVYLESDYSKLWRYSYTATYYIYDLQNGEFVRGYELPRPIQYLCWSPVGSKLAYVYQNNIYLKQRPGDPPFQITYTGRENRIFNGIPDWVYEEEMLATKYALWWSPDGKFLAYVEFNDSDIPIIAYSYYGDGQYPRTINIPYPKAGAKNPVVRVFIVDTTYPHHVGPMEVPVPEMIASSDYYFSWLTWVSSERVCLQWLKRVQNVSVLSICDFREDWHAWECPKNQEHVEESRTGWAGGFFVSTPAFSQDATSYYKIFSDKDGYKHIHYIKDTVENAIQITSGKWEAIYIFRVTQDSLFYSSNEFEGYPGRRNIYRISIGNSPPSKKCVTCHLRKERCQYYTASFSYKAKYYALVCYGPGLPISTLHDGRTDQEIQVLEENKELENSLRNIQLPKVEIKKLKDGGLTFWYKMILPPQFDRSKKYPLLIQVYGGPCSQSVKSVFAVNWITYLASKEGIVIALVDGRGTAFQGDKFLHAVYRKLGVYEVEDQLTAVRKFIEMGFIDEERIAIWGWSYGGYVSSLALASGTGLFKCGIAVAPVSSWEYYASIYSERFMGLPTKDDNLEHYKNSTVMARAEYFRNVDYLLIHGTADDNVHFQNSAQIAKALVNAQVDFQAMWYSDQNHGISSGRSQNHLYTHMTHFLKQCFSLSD
Protocol: (§1) Specifically, the cell line was prepared by suspending in a FACS buffer solution at 1×10⁵ cells/100 μl, and treated with 1 μg of each T1.12m, T1.01m, T1.02m and T1.03m. The cells were washed twice with a FACS buffer solution. The cells were stained with an anti-mouse IgG2a antibody (Biolegend). The negative control was stained only with an anti-mouse IgG2a antibody (Biolegend). The expression rate of the stained cells was measured using BD LSR and analyzed using a FlowJo software.

[2] = target: T2, B16F10; assay: flow cytometry on parental B16F10 cells, detection with anti-mouse IgG2a antibody
T2 construct: not a protein target; also called parental B16F10 cells, without the transduced mouse FAP gene
Protocol: as §1

[3] = target: T1, mouse FAP (fibroblast activation …); assay: flow cytometry on B16F10-mFAP cells, 1 µg protein per 1x10^5 cells, anti-mouse IgG2a detection
Protocol: as §1

[4] = target: T3, recombinant human FAP (human, UniProt Q12884 26-760); assay: SPR, captured by anti-human IgG (Fc), human FAP analyte, 1:1 binding model
T3 construct: Soluble analyte in SPR; The description calls FAP a homodimer; also called rhFAP
T3 sequence (looked up): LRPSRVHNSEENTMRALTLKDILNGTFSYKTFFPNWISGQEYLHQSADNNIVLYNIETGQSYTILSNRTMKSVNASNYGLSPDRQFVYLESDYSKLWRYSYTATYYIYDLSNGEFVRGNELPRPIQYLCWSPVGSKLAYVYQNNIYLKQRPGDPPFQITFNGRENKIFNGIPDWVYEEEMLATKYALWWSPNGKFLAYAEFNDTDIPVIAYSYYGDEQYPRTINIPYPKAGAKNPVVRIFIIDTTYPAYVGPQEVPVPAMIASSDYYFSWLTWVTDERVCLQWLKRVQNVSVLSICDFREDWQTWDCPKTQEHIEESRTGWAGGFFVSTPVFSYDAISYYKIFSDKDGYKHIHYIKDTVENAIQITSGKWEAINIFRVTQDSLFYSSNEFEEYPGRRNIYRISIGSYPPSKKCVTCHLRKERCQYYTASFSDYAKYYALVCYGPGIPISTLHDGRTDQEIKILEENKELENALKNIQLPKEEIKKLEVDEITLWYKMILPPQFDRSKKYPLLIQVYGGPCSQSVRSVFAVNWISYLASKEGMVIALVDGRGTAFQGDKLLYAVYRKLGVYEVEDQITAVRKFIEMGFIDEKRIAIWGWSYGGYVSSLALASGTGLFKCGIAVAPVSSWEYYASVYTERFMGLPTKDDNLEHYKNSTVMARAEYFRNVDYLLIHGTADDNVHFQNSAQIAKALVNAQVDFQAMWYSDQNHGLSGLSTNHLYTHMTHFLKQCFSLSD
Protocol: Bindings of T1.04, T1.05, T1.06, T1.07, T1.08, T1.09, T1.10 and T1.11 to recombinant human […] were identified by surface plasmon resonance (SPR). The surface of the CM5 chip was activated with a 1:1 mixture of […] (N-hydroxysuccinimide) and […] (1-Ethyl-3-(3-dimethylaminopropyl) carbodiimide), and 25 μg/ml of anti-human IgG (Fc) antibody was immobilized for 400 seconds at a rate of 10 μl/min. The remaining active ester groups were blocked with 1 M ethanolamine.
Specifically, human proteins T1.04, T1.05, T1.06, T1.07, T1.08, T1.09, T1.10 and T1.11 were diluted to 1 μg/ml, 1 μg/ml, 1 μg/ml, 1 μg/ml, 0.5 μg/ml, 0.5 μg/ml, 0.5 μg/ml, and 1 μg/ml, respectively, and reacted on a CM5 chip immobilized with an anti-human IgG (Fc) antibody. The recombinant human FAP was diluted to 25 nM or 50 nM in 1×HBS-EP+buffer solution and diluted by serial dilution. The diluted recombinant human FAP was reacted at a rate of 30 μl/min. The association and dissociation times were 180 seconds and 400 seconds, respectively. After the dissociation, stabilization was performed for 60 seconds, and then a regeneration was performed for 30 seconds with a 10 mM glycine pH 1.5 solution at a rate of 30 μl/min.

Row | Binder | percent of cells in the positive gate (mFAP-PE) [1] | percent of cells in the positive gate (mFAP-PE) [2] | percent of cells bound [3] | Kd [4] | koff [4] | kon [4]
1 | B1 | 92.6% | 1.97% | ≥ 99% | – | – | –
2 | B2 | – | – | – | 0.479 nM | 7.48e-05 s⁻¹ | 156000 M⁻¹ s⁻¹
3 | B3 | – | – | – | 0.267 nM | 3.19e-05 s⁻¹ | 120000 M⁻¹ s⁻¹
